Experimental data as given in paper doi:10.1101/2020.01.16.909549.

Molecular target: T1, Rad4 Δβ-hairpin3 crosslinking construct (<SC41B>);Rad23 (crystal) (Saccharomyces cerevisiae?;Saccharomyces …, UniProt P14736;P32628 101-632;230-398, V131C;C132S;del599-605|)
T1 sequence 1: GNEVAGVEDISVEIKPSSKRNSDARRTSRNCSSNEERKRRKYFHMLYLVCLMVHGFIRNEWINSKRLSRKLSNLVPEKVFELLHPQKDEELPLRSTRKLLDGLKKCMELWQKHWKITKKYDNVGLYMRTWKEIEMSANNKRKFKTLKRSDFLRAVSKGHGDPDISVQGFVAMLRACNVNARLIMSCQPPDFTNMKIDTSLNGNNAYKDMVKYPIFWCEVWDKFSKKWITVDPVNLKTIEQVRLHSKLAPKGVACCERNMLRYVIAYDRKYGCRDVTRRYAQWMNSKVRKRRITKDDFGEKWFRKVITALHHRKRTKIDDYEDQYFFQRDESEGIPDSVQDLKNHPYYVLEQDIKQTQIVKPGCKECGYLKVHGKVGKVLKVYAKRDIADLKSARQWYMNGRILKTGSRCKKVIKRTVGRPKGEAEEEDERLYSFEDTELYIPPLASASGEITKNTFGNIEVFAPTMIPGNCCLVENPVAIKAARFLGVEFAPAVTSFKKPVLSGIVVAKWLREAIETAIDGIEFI
T1 sequence 2: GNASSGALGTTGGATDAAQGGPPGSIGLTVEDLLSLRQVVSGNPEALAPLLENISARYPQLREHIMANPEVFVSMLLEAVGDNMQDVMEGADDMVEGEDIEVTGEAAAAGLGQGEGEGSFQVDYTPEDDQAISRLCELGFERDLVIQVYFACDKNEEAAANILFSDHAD
Assay: X-ray crystallography

B1: CGC/GCG 23-bp crystal DNA (CH9c) (dsDNA)
DNA 1: TTGACTCGACATCGCGCGCTACA
DNA 2: ATGTAGCGCGCGATGTCGAGTCA
modifications: disulfide (cystamine)-tethered dG* at top strand position 8, from 2-F-dI
binding result: binds
